What was measured:
recombinant human PEX = biological target: T1, recombinant human PEX (Homo sapiens, UniProt P78562); assay: Membrane-bound endopeptidase assay, hydrolysis by PEX-expressing COS cell membranes (HPLC); format: biochemical; details: for hydrolysis of the peptide in the presence of PEX: 10 μg peptide, COS cell membranes expressing PEX, HPLC at 214 nm, FIG. 8
T1 construct: excising the full length PEX cDNA that was then inserted into pcDNA3 vector; expressed in transfected cells; host or cells: COS-7 cells, transient transfection with pPEX (pcDNA3); 100,000 x g membrane fraction
T1 sequence (P78562 1-749): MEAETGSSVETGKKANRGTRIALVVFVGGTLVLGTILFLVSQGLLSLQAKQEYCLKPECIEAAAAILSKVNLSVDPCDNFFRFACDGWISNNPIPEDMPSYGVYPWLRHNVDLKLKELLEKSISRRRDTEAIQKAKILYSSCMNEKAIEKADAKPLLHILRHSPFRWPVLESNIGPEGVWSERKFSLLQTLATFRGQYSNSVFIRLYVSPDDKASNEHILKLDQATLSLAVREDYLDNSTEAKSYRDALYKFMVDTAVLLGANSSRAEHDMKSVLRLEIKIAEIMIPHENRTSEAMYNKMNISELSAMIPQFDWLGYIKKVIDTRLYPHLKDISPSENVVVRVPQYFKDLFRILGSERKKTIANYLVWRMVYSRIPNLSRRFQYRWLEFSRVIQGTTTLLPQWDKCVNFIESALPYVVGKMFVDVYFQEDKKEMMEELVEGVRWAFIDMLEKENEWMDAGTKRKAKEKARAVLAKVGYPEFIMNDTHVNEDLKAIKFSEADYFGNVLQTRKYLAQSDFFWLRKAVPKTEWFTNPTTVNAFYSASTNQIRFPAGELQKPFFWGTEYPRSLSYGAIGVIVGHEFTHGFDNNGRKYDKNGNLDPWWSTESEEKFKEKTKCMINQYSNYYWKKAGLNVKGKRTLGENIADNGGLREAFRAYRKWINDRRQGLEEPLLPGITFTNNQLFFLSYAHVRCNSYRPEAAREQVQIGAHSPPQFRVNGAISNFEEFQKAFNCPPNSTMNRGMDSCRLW
Description: (§1) COS-7 cells transiently transfected with pcDNA3 vector alone, with vector containing human NEP cDNA (generous gift of P. Crine, Université de Montréal), or with pPEX plasmid, were washed and scraped in PBS. Following brief centrifugation, the cell pellets were resuspended in 50 mM Tris-HCl, pH 7.4 and disrupted by sonication. Homogenates were fractionated by sequential centrifugation at 1,000×g for 10 min and then at 100,000×g for 60 min. The final precipitate was washed with 50 mM Tris-HCl, pH 7.4, resuspended in the same buffer, and assayed for endopeptidase activity. The protein concentration in membrane fractions was determined by the method of Bradford with bovine serum albumin as standard.
[D-Ala^2,Leu^5] enkephalin (500 μM) was incubated with COS cell membrane preparations (˜60 μg of protein) in 100 mM Tris-HCl, pH 7.0, at 37° C. for 30 min (final volume 30 μl). The reaction was terminated by the addition of 100 μl 0.1% TFA (v/v). Production of Tyr-D-Ala-Gly was monitored using reversed-phase HPLC (Bondpak C-18 reverse phase column, Waters) with a U.V. detector set at 214 nm. A linear solvent gradient of 0% B to 40% B in 60 min was used with a flow rate of 1.5 ml/min (mobile phase A=0.1% TFA (v/v); mobile phase B=80% acetonitrile/0.1% TFA). Tyr-D-Ala-Gly was identified by co-chromatography with marker synthetic peptide. For assessing PEX endopeptidase activity, 10 μg of PTH [1-38] and PTH [1-34] peptides (Peninsula Laboratories; Belmont, Calif.) were added to the membrane preparations. For HPLC analysis of hydrolysis products, a linear solvent gradient of 0% to 50% solution B was used at a rate of 1.5 ml/min. MALDI-TOF mass spectrometry was performed on specific peptide fragments.

recombinant human NEP = biological target: T2, recombinant human NEP (Homo sapiens, UniProt P08473); assay: Membrane-bound endopeptidase assay, hydrolysis by NEP-expressing COS cell membranes (HPLC); format: biochemical; details: 500 μM substrate, 37° C., 30 min; FIG. 7B
T2 construct: expressed in transfected cells; host or cells: COS-7 cells, transient transfection; 100,000 x g membrane fraction
Description: as §1
[D-Ala^2,Leu^5] enkephalin (500 μM) was incubated with COS cell membrane preparations (˜60 μg of protein) in 100 mM Tris-HCl, pH 7.0, at 37° C. for 30 min (final volume 30 μl). The reaction was terminated by the addition of 100 μl 0.1% TFA (v/v). Production of Tyr-D-Ala-Gly was monitored using reversed-phase HPLC (Bondpak C-18 reverse phase column, Waters) with a U.V. detector set at 214 nm. A linear solvent gradient of 0% B to 40% B in 60 min was used with a flow rate of 1.5 ml/min (mobile phase A=0.1% TFA (v/v); mobile phase B=80% acetonitrile/0.1% TFA). Tyr-D-Ala-Gly was identified by co-chromatography with marker synthetic peptide. […]

T2 sequence (P08473 whole entry): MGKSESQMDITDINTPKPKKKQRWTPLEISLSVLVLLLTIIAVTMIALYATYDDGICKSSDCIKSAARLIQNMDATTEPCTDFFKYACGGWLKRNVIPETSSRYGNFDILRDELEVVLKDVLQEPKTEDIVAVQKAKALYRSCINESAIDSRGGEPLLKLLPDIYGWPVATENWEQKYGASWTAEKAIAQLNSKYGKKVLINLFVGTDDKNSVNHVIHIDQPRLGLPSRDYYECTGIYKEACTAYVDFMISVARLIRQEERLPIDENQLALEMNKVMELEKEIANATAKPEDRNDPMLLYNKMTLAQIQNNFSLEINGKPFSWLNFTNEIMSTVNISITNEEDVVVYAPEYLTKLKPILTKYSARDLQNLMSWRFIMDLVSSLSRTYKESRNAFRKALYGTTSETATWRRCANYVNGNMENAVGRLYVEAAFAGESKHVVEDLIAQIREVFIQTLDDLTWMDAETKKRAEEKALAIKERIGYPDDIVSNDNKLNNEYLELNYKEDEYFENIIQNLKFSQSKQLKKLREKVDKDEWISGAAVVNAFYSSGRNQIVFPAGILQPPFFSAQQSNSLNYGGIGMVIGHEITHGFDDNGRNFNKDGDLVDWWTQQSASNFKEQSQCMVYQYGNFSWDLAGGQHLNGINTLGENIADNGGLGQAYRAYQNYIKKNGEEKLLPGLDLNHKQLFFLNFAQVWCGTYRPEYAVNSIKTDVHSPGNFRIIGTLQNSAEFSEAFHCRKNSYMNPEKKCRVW

PTH [1-34]: human parathyroid hormone peptide 1-34 (Peninsula Laboratories), used as PEX substrate
hydrolysis of the peptide in the presence of PEX (recombinant human PEX): hydrolyzed

PTH [1-38]: human parathyroid hormone peptide 1-38 (Peninsula Laboratories), used as PEX substrate (SVSEIQLMHNLGKHLNSMERVEWLRKKLQDVHNFVALG)
hydrolysis of the peptide in the presence of PEX (recombinant human PEX): hydrolyzed

[D-Ala^2, Leu^5] enkephalin
production of Tyr-D-Ala-Gly from the substrate, PEX membranes (recombinant human PEX; 500 μM substrate, 37° C., 30 min, FIG. 7C): evident only in NEP-expressing membrane preparations
production of Tyr-D-Ala-Gly from the substrate, NEP membranes (recombinant human NEP): evident only in NEP-expressing membrane preparations
